US9963688B2, “Heavy metal resistant esterase” (AMERICAN UNIVERSITY OF CAIRO, priority 2013, dated 2018)
“And” between values parts separate entries of the source, which are not always exact repeats. Equal values may be shown once.

Columns and labels:
Format in all cases: biochemical
[1] = Effect of temperature on EstATII esterase activity (p-nitrophenyl butyrate hydrolysis)
Description: (§1) Enzyme activity was determined by measuring the formation of p-nitrophenol (pNP) from the enzymatic hydrolysis of the p-nitrophenyl ester; p-nitrophenyl butyrate (Sigma-Aldrich). The reaction mixture contained p-nitrophenyl butyrate (pNPB) to a final concentration 0.1 mM and 50 mM Tris-HCl pH=8. In this study, the standard reaction was conducted at 65° C., initiated by the addition of EstATII and terminated by the addition of 10% SDS. Measurements were done at 410 nm using UV-spectrophotometer (Ultrospec 3100 pro, Amersham Biosciences) unless stated otherwise^20. All experiments were performed in triplicates. Substrate specificity of EstATII was determined using p-nitrophenol esters with varying side chain length. Short-chain fatty acid esters used were PNP-acetate (C2), PNP-butyrate (C4) and PNP-valerate (C5) and long-chain fatty acid esters used were PNP-decanoate (C10), PNP-dodecanoate C12, PNP-myristate (C14) and PNP-palmitate (C16). The optimum temperature for the activity of EstATII was determined at a temperature range 30-80° C. The optimum pH for the activity of EstATII was measured at a pH range (3-9.5) using the following buffers: 50 mM sodium acetate (pH 3-5.5), 50 mM sodium phosphate (pH 6, 7.5) and 50 mM Tris-HCL (pH 7.5-9.5). Formation of pNP was measured at 348 nm (the pH-independent isosbestic wavelength of pNP)^21. The effect of NaCl concentration on enzyme activity was measured at different NaCl concentrations (0-4.5 M) under standard assay conditions. To assess the effect of metal ions on enzyme activity, cations were added to a final concentration of 1 mM, and relative activity measured at the above-described standard conditions. The effect of detergents (at final concentrations 0.1 and 1%) and inhibitors (final concentration 1 mM) on enzyme activity was tested at the above-described standard assay conditions.

[2] = Effect of pH on EstATII esterase activity (pNP formation measured at 348 nm)
Description: as §1

[3] = Substrate specificity of EstATII
Description: as §1

[4] = Effect of NaCl concentration on EstATII activity; details: for Relative Activity: absence of NaCl defined as 100%
Description: as §1

[5] = Effect of metal ions on EstATII activity
Description: as §1

[6] = Effect of detergents, reducing and modifying agents on EstATII activity; details: standard assay conditions
Description: as §1

[7] = cation 1 mM, standard conditions

B1: EstATII: novel esterase from the lower convective layer of the Atlantis II brine pool, Red Sea; 314 amino acids, HSL family (protein)
chain: MSRYVDELYRNPGQPGLRALLRGMLKLLFRGLIRPPVPFAVQALVLRLLTLGMPLARGVTRSTEQIAGRPCMWHRPAAGGNGRVLLYLHGGAFVIGSPQTHRGICSALASRGQFDVCALDYRLAPAHPAPAACDDAVAAYQALLQRGYAPAQITLIGDSAGGNLVLVTAQKLAALKLPLPASLVCFSPVTDMTAEQLHAPAAGDPLLHPSWLDSARDAYCPAGLDRADPMVSPLFGQLKGLPPLLLQVGEDEVLLNDSLRLAEAARAADVAVRLERYEDLWHVFQAHAGLLHSADAALQRVVDFVNSAQTDSVS
Which “Relative Activity” value ([1]; 30 °C, pNPB 0.1 mM, 50 mM Tris-HCl pH 8, 65 °C defined as 100%) does the source give for B1 here?
Its value is 56.3 ± 0.8%.

And the “Relative Activity” value ([1]; 35 °C, 65 °C defined as 100%)?
Its value is 59.9 ± 1%.

What about the “Relative Activity” value ([1]; 40 °C, 65 °C defined as 100%) of the same molecule?
The value was 65.3 ± 1.8%.

And the “Relative Activity” value ([1]; 45 °C, 65 °C defined as 100%)?
Its value is 86.9 ± 0.9%.

And the “Relative Activity” value ([1]; 50 °C, 65 °C defined as 100%)?
The value was 90.9 ± 2%.

What about the “Relative Activity” value ([1]; 55 °C, 65 °C defined as 100%) of the same molecule?
The value was 93.9 ± 1%.

And the “Relative Activity” value ([1]; 60 °C, 65 °C defined as 100%)?
Its value is 95.9 ± 0.3%.

What about the “Relative Activity” value ([1]; 65 °C, optimum condition (defined as 100%)) of the same molecule?
The value was 100 ± 0.2%.

What about the “Relative Activity” value ([1]; 70 °C, 65 °C defined as 100%) of the same molecule?
Its value is 91.6 ± 0.15%.

What about the “Relative Activity” value ([1]; 75 °C, 65 °C defined as 100%) of the same molecule?
Its value is 76.7 ± 0.3%.

And the “Temp ° C. (apparent optimum temperature)” value ([1]; range tested 30-80 °C)?
The value was 65 °C.

What about the “Activity of the enzyme” value ([1]; temperatures ranging from 45° C. to 75° C.) of the same molecule?
The value was greater than 70%.

And the “Relative Activity” value ([2]; pH 3, 50 mM sodium acetate, pH 8.5 defined as 100%)?
Its value is 0%.

And the “Relative Activity” value ([2]; pH 4, 50 mM sodium acetate, pH 8.5 defined as 100%)?
Its value is 0%.

What about the “Relative Activity” value ([2]; pH 5, 50 mM sodium acetate, pH 8.5 defined as 100%) of the same molecule?
Its value is 0%.

And the “Relative Activity” value ([2]; pH 5.5, 50 mM sodium acetate, pH 8.5 defined as 100%)?
The value was 13.1 ± 0.2%.

And the “Relative Activity” value ([2]; pH 6, 50 mM sodium phosphate, pH 8.5 defined as 100%)?
Its value is 38.5 ± 1.2%.

What about the “Relative Activity” value ([2]; pH 6.5, pH 8.5 defined as 100%) of the same molecule?
Its value is 43.2 ± 2%.

And the “Relative Activity” value ([2]; pH 7, pH 8.5 defined as 100%)?
Its value is 81.5 ± 1%.

And the “Relative Activity” value ([2]; pH 7.5 (Na Phosphate), pH 8.5 defined as 100%)?
The value was 88 ± 1%.

And the “Relative Activity” value ([2]; pH 7.5 (Tris.HCl), pH 8.5 defined as 100%)?
Its value is 66.1 ± 0.2%.

And the “Relative Activity” value ([2]; pH 8, 50 mM Tris-HCl, pH 8.5 defined as 100%)?
Its value is 84.7 ± 1.1%.

And the “Relative Activity” value ([2]; pH 8.5, optimum condition (defined as 100%))?
Its value is 100 ± 3%.

What about the “Relative Activity” value ([2]; pH 9, 50 mM Tris-HCl, pH 8.5 defined as 100%) of the same molecule?
Its value is 60 ± 2%.

What about the “Activity of the enzyme” value ([2]; pH lower than 5.5) of the same molecule?
The value was “No activity”.

What about the “Activity of the enzyme” value ([2]; pH=7-9) of the same molecule?
Its value is greater than 50%.

What about the “pH (highest activity)” value ([2]; range tested pH 3-9) of the same molecule?
Its value is 8.5.

What about the “Activity towards short-chain fatty acid esters” value ([3]; C2, C4 and C5 p-nitrophenol esters) of the same molecule?
Its value is “active”.

And the “Activity towards long-chain fatty acid esters” value ([3]; C10, C12, C14 and C16 p-nitrophenol esters)?
The value was “no activity”.

What about the “Relative Activity” value ([3]; substrate pNP-acetate (C2)) of the same molecule?
The value was 100 ± 3%.

And the “Relative Activity” value ([3]; substrate pNP-butyrate (C4))?
The value was 61.9 ± 0.8%.

What about the “Relative Activity” value ([3]; substrate pNP-decanoate (C10)) of the same molecule?
Its value is 0%.

What about the “Relative Activity” value ([3]; substrate pNP-dodecanoate (C12)) of the same molecule?
Its value is 0%.

And the “Relative Activity” value ([3]; substrate pNP-myristate (C14))?
Its value is 0%.

And the “Relative Activity” value ([3]; substrate pNP-palmitate (C16))?
Its value is 0%.

And the “Relative Activity” value ([3]; substrate pNP-valerate (C5))?
Its value is 40.5 ± 1.2%.

What about the “Relative Activity” value ([4]; 0.5M Sodium Chloride) of the same molecule?
The value was 102.2 ± 2%.

What about the “Relative Activity” value ([4]; 1M Sodium Chloride) of the same molecule?
Its value is 99.9 ± 0.5%.

What about the “Relative Activity” value ([4]; 1.5M Sodium Chloride) of the same molecule?
The value was 120 ± 1%.

And the “Relative Activity” value ([4]; 2M Sodium Chloride)?
The value was 122.9 ± 1%.

What about the “Relative Activity” value ([4]; 2.5M Sodium Chloride) of the same molecule?
Its value is 102.4 ± 1.8%.

And the “Relative Activity” value ([4]; 3M Sodium Chloride)?
Its value is 73.8 ± 3.8%.

And the “Relative Activity” value ([4]; 3.5M Sodium Chloride)?
Its value is 65.3 ± 4.6%.

And the “Relative Activity” value ([4]; 4M Sodium Chloride)?
Its value is 53.8 ± 1%.

What about the “Relative Activity” value ([4]; 4.5M Sodium Chloride) of the same molecule?
Its value is 39.7 ± 1.7%.

And the “NaCl concentration of highest activity” value ([4]; range tested 0M-4.5M NaCl)?
Its value is 2 M.

And the Activity ([4]; up to 4M NaCl)?
Its Activity is greater than 50%.

What about the Enzyme activity ([4]; up to 4.5M NaCl) of the same molecule?
The Enzyme activity was “maintained”.

What about the “Relative activity with Ba^2+” value [5, 7] of the same molecule?
Its value is 158% and 158.3 ± 2.2%.

What about the “Relative activity with Co^2+” value [5, 7] of the same molecule?
Its value is 104% and 104 ± 2%.

And the “Relative activity with Cu^2+” value [5, 7]?
Its value is 94.8 ± 0.1%.

What about the “Relative activity with Fe^3+” value [5, 7] of the same molecule?
Its value is 96.2 ± 0.7%.

What about the “Relative activity with Hg^2+” value [5, 7] of the same molecule?
The value was 60.9 ± 0.4%.

And the “Relative activity with Mg^2+” value [5, 7]?
Its value is 90.6 ± 3.6%.

And the “Relative activity with Mn^2+” value [5, 7]?
Its value is 111% and 111.8 ± 0.1%.

What about the “Relative activity with Zn^2+” value [5, 7] of the same molecule?
Its value is 85.2 ± 4.4%.

And the “Relative activity with Ca^2+” value ([5]; cation 1 mM, standard conditions (65 °C, Tris-HCl pH 8, pNPB))?
The value was 94.8 ± 3%.

And the “Activity with the rest of the metal ions tested” value ([5]; metal ions other than Barium, Manganese, Cobalt, 1 mM)?
Its value is “above 60%”.

What about the “Resistance to inhibition by all metal ions tested” value ([5]; significantly inhibited = relative activity below 50%) of the same molecule?
The value was “showed resistance to inhibition by all metal ions tested”.

And the “Effect of EDTA chelation on enzyme activity” value ([5]; with and without EDTA chelation)?
The value was “not affected”.

What about the “Relative Activity” value ([6]; CTAB 1 mM) of the same molecule?
The value was 13.1 ± 1.9%.

And the “Relative Activity” value ([6]; DTT 1 mM)?
Its value is 78.9% and 78.9 ± 4.2%.

What about the “Relative Activity” value ([6]; SDS 0.1%) of the same molecule?
The value was 6% and 6.1 ± 0.4%.

What about the “Relative Activity” value ([6]; Triton X-100 0.1%) of the same molecule?
Its value is 42.3% and 42.2 ± 1.1%.

What about the “Relative Activity” value ([6]; Tween 20 0.1%) of the same molecule?
Its value is 87.5% and 87.5 ± 2.3%.

And the “Relative Activity” value ([6]; Tween 20 1%)?
The value was 40.1% and 40.1 ± 0.9%.

And the “Relative Activity” value ([6]; Tween 80 1%)?
Its value is 54.5% and 54.5 ± 0.7%.

And the “Relative Activity” value ([6]; β-mercaptoethanol 1 mM)?
The value was 117.9% and 117.9 ± 0.3%.
